Test [1] deals with FcγRII (CD32) on K-562 cells (human (endogenous in K-562)) (UniProt P12318). Briefly: flow cytometry on cells. On the technique in general: In flow cytometry, cells or beads pass a laser one at a time.
Test [2] deals with T1, human FcγRIIa (CD32) expressed on transfected COS-7 cells (human, UniProt P12318 34-317).
T1 sequence (looked up): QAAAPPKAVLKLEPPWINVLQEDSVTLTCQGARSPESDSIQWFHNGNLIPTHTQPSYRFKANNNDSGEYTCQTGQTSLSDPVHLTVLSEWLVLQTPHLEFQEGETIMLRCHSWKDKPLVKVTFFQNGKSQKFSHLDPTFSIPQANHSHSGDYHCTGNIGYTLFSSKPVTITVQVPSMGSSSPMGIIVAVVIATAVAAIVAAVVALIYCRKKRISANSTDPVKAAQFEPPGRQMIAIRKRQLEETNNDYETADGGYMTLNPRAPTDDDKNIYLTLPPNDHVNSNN
Briefly: flow cytometry on cells.

Usually Kd stands for the free concentration of one partner at which half of the binding sites on the other are occupied at equilibrium, for simple one-to-one binding.

B1: C-reactive protein (CRP), human (natural protein, UniProt P02741 19-224, looked up)
chain: QTDMSRKAFVFPKESDTSYVSLKAPLTKPLKAFTVCLHFYTELSSTRGYSIFSYATKRQDNEILIFWSKDIGYSFTVGGSEILFEVPEVTVAPVHICTSWESASGIVEFWVDGKPRVRKSLKKGYTVGAEASIILGQEQDSFGGNFEGSQSLVGDIGNVNMWDFVLSPDEINTIYLGGPFSPNVLNWRALKYEVQGEVFTKPQLWP
As to B1, the Kd was found to be 97 nM in test [1] and 66 nM in test [2].

For the origin of these results see publication PMC2195602 (The Journal of Experimental Medicine, 1999).
